B3: soluble BTN3A1 ectodomain (IgV-IgC), homodimer (ligand)
chain: not shown
notes: extracellular domain; Soluble analyte or immobilised ligand in SPR; streptavidin-PE tetramer in staining; also called BTN3A1 ectodomain homodimer; BTN3A1 tetramer; not shown: C-terminal biotin ligase (AviTag) and His tags
B11: BTN2A1 ectodomain homodimer (disulfide-linked, with C-terminal Cys247 and leucine zippers) (ligand, human, UniProt Q7KYR7 29-248, looked up)
chain: QFIVVGPTDPILATVGENTTLRCHLSPEKNAEDMEVRWFRSQFSPAVFVYKGGRERTEEQMEEYRGRTTFVSKDISRGSVALVIHNITAQENGTYRCYFQEGRSYDEAILHLVVAGLGSKPLISMRGHEDGGIRLECISRGWYPKPLTVWRDPYGGVAPALKEVSMPDADGLFMVTTAVIIRDKSVRNMSCSINNTLLGQKKESVIFIPESFMPSVSPCA
notes: extracellular domain; One copy carries the acidic, the other the basic zipper; also called immobilised BTN2A1 ectodomain homodimer; BTN2A1 homodimer; not shown: acidic or basic leucine zipper and C-terminal AviTag/His tags

Test [1] addresses B11. The experiment in a line: SPR, soluble BTN3A1 IgV domain over immobilised BTN2A1 homodimer, equilibrium analysis, ± SEM.
The target of test [2] is B3. The experiment in a line: SPR, soluble BTN3A1 IgV domain over immobilised BTN3A1 homodimer.
For test [3], the target named is B11. The experiment in a line: SPR, soluble BTN2A1 ectodomain over immobilised BTN2A1 ectodomain homodimer.
Test [4] concerns the target B3. The experiment in a line: SPR, soluble BTN2A1 ectodomain over immobilised BTN3A1 homodimer, equilibrium analysis, ± SEM.
In test [5] the target is B3. The experiment in a line: SPR, soluble BTN2A1 ectodomain over immobilised BTN3A1 homodimer, equilibrium analysis.
Test [6] concerns the target T1, 9C2 Vγ5Vδ1+ γδTCR on transfected HEK293T cells.
T1 construct: Control TCR, co-transfected with CD3; also called 9C2 TCR (Control)
The experiment in a line: flow cytometry, tetramer-PE versus CD3-APC on HEK293T cells co-transfected with CD3 and 9C2 TCR; SAv ctl 26.

For test [7], the target named is T2, BTN2A1 on transfected cells (human, UniProt Q7KYR7 29-527).
T2 construct: Expressed from pMIG in NIH-3T3 or HEK293T cells; also called BTN2A1+ cells; BTN2A1 WT
T2 sequence: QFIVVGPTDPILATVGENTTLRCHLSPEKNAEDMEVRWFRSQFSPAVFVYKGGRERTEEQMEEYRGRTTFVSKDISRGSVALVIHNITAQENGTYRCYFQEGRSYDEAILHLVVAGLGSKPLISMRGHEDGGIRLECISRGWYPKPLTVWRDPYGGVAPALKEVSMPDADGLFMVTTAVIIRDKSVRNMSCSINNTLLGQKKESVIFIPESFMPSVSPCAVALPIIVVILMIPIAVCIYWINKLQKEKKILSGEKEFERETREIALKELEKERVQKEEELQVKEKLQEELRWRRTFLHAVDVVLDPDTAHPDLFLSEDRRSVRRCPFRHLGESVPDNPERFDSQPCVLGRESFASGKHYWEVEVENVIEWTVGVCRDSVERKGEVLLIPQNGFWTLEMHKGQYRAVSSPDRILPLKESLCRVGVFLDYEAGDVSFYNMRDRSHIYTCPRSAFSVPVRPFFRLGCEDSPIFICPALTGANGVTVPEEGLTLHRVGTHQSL
The experiment in a line: FRET between anti-BTN2A1 (259) and anti-BTN3A (103.2) mAbs on NIH-3T3 cells co-expressing BTN2A1 WT and the BTN3A1 mutant (association in cis).

Test [8] addresses B3. Put plainly: SPR, soluble BTN3A1 ectodomain over immobilised BTN2A1 homodimer, equilibrium analysis, ± SEM.

B1: monomeric BTN3A1 IgV domain (ligand)
chain: not shown
notes: domain: IgV; not shown: C-terminal biotin ligase (AviTag) and His tags
The molecule B1 registered a Kd in test [1] of 1100 µM. Also, the binding result in test [2] is listed as “no binding (tested: 1,590 µM)”.

B2: soluble BTN2A1 ectodomain lacking Cys247 (monomeric) (ligand, human, UniProt Q7KYR7 29-246, looked up)
chain: QFIVVGPTDPILATVGENTTLRCHLSPEKNAEDMEVRWFRSQFSPAVFVYKGGRERTEEQMEEYRGRTTFVSKDISRGSVALVIHNITAQENGTYRCYFQEGRSYDEAILHLVVAGLGSKPLISMRGHEDGGIRLECISRGWYPKPLTVWRDPYGGVAPALKEVSMPDADGLFMVTTAVIIRDKSVRNMSCSINNTLLGQKKESVIFIPESFMPSVSP
notes: extracellular domain; also called soluble monomeric BTN2A1 ectodomain; full-length BTN2A1 ectodomain; not shown: C-terminal biotin ligase (AviTag) and His tags
For B2, in test [3], the binding result is given as “no binding”. The dissociation constant (Kd) is 1800 µM in test [4] and roughly 1800 µM in test [5].
Consider B3, for which the “median fluorescence of PE” value in test [6] turned out to be 28.

B4: BTN3A1 Arg44-Ala on transfected NIH-3T3 cells (ligand)
chain: not shown
notes: whole, on cells; Position counts the mature protein
Consider B4, for which, in test [7], the binding result is listed as “no binding”.

B5: BTN3A1 Tyr98-Ala on transfected NIH-3T3 cells (ligand)
chain: not shown
notes: as for B4
Consider B5, for which the binding result in test [7] was “no binding”.

B6: BTN3A1 Glu106-Ala on transfected NIH-3T3 cells (ligand)
chain: not shown
notes: as for B4
B6: the binding result in test [7] was “no binding”.

B7: BTN3A1 Tyr105-Ala on transfected NIH-3T3 cells (ligand)
chain: not shown
notes: as for B4
Consider B7, for which the binding result in test [7] was “no binding”.

B8: BTN3A1 Tyr98-Phe on transfected NIH-3T3 cells (ligand)
chain: not shown
notes: as for B4
Regarding B8, the binding result in test [7] is “no binding”.

B9: BTN3A1 Leu96-Ala on transfected NIH-3T3 cells (ligand)
chain: not shown
notes: as for B4
Regarding B9, in test [7], the binding result is on record as “no binding”.

B10: BTN2A1 ectodomain tetramer (streptavidin-PE) (ligand, human, UniProt Q7KYR7 29-248, looked up)
chain: QFIVVGPTDPILATVGENTTLRCHLSPEKNAEDMEVRWFRSQFSPAVFVYKGGRERTEEQMEEYRGRTTFVSKDISRGSVALVIHNITAQENGTYRCYFQEGRSYDEAILHLVVAGLGSKPLISMRGHEDGGIRLECISRGWYPKPLTVWRDPYGGVAPALKEVSMPDADGLFMVTTAVIIRDKSVRNMSCSINNTLLGQKKESVIFIPESFMPSVSPCA
notes: extracellular domain; biotinylated at a C-terminal AviTag; also called BTN2A1 tetramer
With B10, in test [6], the “median fluorescence of PE” value stood at 25.
With B11, in test [8], the Kd was 500 µM.

B12: BTN2A1-BTN3A1-zipper ectodomain complex (wild type) (other)
chain 1: QFIVVGPTDPILATVGENTTLRCHLSPEKNAEDMEVRWFRSQFSPAVFVYKGGRERTEEQMEEYRGRTTFVSKDISRGSVALVIHNITAQENGTYRCYFQEGRSYDEAILHLVVAGLGSKPLISMRGHEDGGIRLECISRGWYPKPLTVWRDPYGGVAPALKEVSMPDADGLFMVTTAVIIRDKSVRNMSCSINNTLLGQKKESVIFIPESFMPSVSPCA
chain 2: not shown
notes: extracellular domain; Immobilised in SPR; streptavidin-PE tetramer in staining; also called BTN2A1-BTN3A1 complex; BTN2A1-BTN3A1 heteromer; not shown: acid zipper (AZ)-His6; basic zipper (BZ)-biotin ligase tag
B12: the “median fluorescence of PE” value in test [6] was found to be 52.
